Source: patent US20160320413A1 (D GEN, published 2016)

Target: abnormal human PrP (disease associated PrP, including PrPSc) from vCJD brain homogenate, blood or ur (human, UniProt P04156 23-230)

B1: ICSM18 anti-PrP antibody (D-Gen Ltd, product code 0130-01810), biotinylated (antibody, V domains shown)
VH: EVQLQQSGPELVKPGSSVKISCKASRNTFTDYNLDWVKQSHGKTLEWIGNVYPNNGVTGYNQKFRGKATLTVDKSSSTAYMELHSLTSEDSAVYYCALYYYDVSYWGQGTLVTVSA
VL: QIVLTQSPAIMSASPGEKVTMTCSASSSVSYMHWYQQKSGTSPKRWIYDTSKLASGVPARFSGSGSGTSYSLTISSMEAEDAATYFCHQWRSNPYTFGGGTKLEIKR
  ratio relative to cut off: 1.17
